{
  "source": "paper PMC3003327",
  "about": "(The Journal of Cell Biology, 2010)",
  "proteins": {"B1": {"name": "human VASP^1-380aa, unlabeled wild type (untagged hVASP^1-380aa) (natural protein)", "chain": "GSMSETVICSSRATVMLYDDGNKRWLPAGTGPQAFSRVQIYHNPTANSFRVVGRKMQPDQQVVINCAIVRGVKYNQATPNFHQWRDARQVWGLNFGSKEDAAQFAAGMASALEALEGGGPPPPPALPTWSVPNGPSPEEVEQQKRQQPGPSEHIERRVSNAGGPPAPPAGGPPPPPGPPPPPGPPPPPGLPPSGVPAAAHGAGGGPPPAPPLPAAQGPGGGGAGAPGLAAAIAGAKLRKVSKQEEASGGPTAPKAESGRSGGGGLMEEMNAMLARRRKATQVGEKTPKDESANQEEPEARVPAQSESVRRPWEKNSTTLPRMKSSSSVTTSETQPCTPSSSDYSDLQRVKQELLEEVKKELQKVKEEIIEAFVQELRKRGSP"}},
  "target": "the molecule itself",
  "assay": "AUC",
  "data": [
    {"protein": "B1", "values": [
      {"measurement": "stoichiometry N", "result": 4}
    ]}
  ]
}
